Reference: the supplement of paper PMC5998384

Key:
[1] = system: HeLa Kyoto; assay: solubility change mitosis vs G1/S (difference of NP-40 vs SDS log2 ratios) (log2 ratio difference); higher = more soluble in mitosis
[2] = system: HeLa Kyoto; assay: melting temperature (median over replicates), in situ; higher = more thermally stable
[3] = system: HeLa Kyoto; assay: solubility in G1/S (NP-40 vs SDS abundance) (log2 ratio); higher = more soluble; settings: cell cycle stage: G1/S
[4] = system: HeLa Kyoto; assay: thermal stability score vs G1/S (z-score of summed log2 fold changes over temperatures); higher = more thermally stable than in G1/S
[5] = cell cycle stage: early G1 (4.5 h after nocodazole release)
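Wherever melting temperature (median over replicates), in situ is given: HeLa Kyoto cells synchronized by double thymidine or nocodazole block, proteins quantified by TMT10plex mass spectrometry, three independent biological replicates.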
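Wherever solubility change mitosis vs G1/S (difference of NP-40 vs SDS log2 ratios) is given: synchronized HeLa Kyoto cells (double thymidine block for G1/S, nocodazole release for mitosis), protein amounts in NP-40 versus SDS lysates quantified by mass spectrometry, three biological replicates.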
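Wherever solubility in G1/S (NP-40 vs SDS abundance) is given: HeLa Kyoto cells arrested at G1/S by double thymidine block, proteins quantified by TMT10plex mass spectrometry in mild NP-40 versus SDS extracts, three biological replicates.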
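Wherever thermal stability score vs G1/S (z-score of summed log2 fold changes over temperatures) is given: synchronized HeLa Kyoto cells, proteins quantified by TMT10plex mass spectrometry, three biological replicates, mitosis taken 0.5 h after nocodazole release, G1/S directly after double thymidine block.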

Chain of MTO1 (chain, as listed by the source): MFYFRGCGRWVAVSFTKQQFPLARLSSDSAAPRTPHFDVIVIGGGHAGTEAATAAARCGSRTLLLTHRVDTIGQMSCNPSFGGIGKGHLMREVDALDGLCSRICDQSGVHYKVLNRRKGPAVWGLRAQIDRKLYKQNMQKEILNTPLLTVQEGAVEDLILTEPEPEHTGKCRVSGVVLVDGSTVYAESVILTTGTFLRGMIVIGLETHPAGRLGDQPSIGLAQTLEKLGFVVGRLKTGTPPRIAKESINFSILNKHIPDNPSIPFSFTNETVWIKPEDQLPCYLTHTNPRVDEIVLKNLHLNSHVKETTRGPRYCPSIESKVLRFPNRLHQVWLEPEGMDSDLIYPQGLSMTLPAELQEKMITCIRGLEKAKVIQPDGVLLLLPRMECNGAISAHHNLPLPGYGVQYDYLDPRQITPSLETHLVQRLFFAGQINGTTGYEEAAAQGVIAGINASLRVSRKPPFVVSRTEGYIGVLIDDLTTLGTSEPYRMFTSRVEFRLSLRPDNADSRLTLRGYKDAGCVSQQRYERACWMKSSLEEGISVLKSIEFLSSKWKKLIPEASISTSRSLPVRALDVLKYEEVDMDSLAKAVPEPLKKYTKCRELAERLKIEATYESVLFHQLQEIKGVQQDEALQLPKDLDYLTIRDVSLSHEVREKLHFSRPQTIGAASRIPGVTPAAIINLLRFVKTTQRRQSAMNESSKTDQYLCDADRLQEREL

Substance | solubility change mitosis (log2) [1] | melting temperature ([2]; cell cycle stage: G1/S) [°C] | melting temperature ([2]; cell cycle stage: mitosis) [°C] | solubility in G1/S (log2) [3] | thermal stability score [4, 5] | thermal stability score ([4]; cell cycle stage: mitosis)
MPNQGEDCYFFFYSTCTKGDSCPFRHCEAAIGNETVCTLWQEGRCFRQVCRFRHMEIDKKRSEIPCYWENQPTGCQKLNCAFHHNRGRYVDGLFLPPSKTVLPTVPESPEEEVKASQLSVQQNKLSVQSNPSPQLRSVMKVESSENVPSPTHPPVVINAADDDEDDDDQFSEEGDETKTPTLQPTPEVHNGLRVTSVRKPAVNIKQGECLNFGIKTLEEIKSKKMKEKSKKQGEGSSGVSSLLLHPEPVPGPEKENVRTVVRTVTLSTKQGEEPLVRLSLTERLGKRKFSAGGDSDPPLKRSLAQRLGKKVEAPETNIDKTPKKAQVSKSLKERLGMSADPDNEDATDKVNKVGEIHVKTLEEILLERASQKRGELQTKLKTEGPSKTDDSTSGARSSSTIRIKTFSEVLAEKKHRQQEAERQKSKKDTTCIKLKIDSEIKKTVVLPPIVASRGQSEEPAGKTKSMQEVHIKTLEEIKLEKALRVQQSSESSTSSPSQHEATPGARRLLRITKRTGMKEEKNLQEGNEVDSQSSIRTEAKEASGETTGVDITKIQVKRCETMREKHMQKQQEREKSVLTPLRGDVASCNTQVAEKPVLTAVPGITRHLTKRLPTKSSQKVEVETSGIGDSLLNVKCAAQTLEKRGKAKPKVNVKPSVVKVVSSPKLAPKRKAVEMHAAVIAAVKPLSSSSVLQEPPAKKAAVAVVPLVSEDKSVTVPEAENPRDSLVLPPTQSSSDSSPPEVSGPSSSQMSMKTRRLSSASTGKPPLSVEDDFEKLIWEISGGKLEAEIDLDPGKDEDDLLLELSEMIDS [ZC3H11A] | 0.559 | 45.8 | 48.6 | -0.583 | 2.36 | 7.44
MQAHELFRYFRMPELVDFRQYVRTLPTNTLMGFGAFAALTTFWYATRPKPLKPPCDLSMQSVEVAGSGGARRSALLDSDEPLVYFYDDVTTLYEGFQRGIQVSNNGPCLGSRKPDQPYEWLSYKQVAELSECIGSALIQKGFKTAPDQFIGIFAQNRPEWVIIEQGCFAYSMVIVPLYDTLGNEAITYIVNKAELSLVFVDKPEKAKLLLEGVENKLIPGLKIIVVMDAYGSELVERGQRCGVEVTSMKAMEDLGRANRRKPKPPAPEDLAVICFTSGTTGNPKGAMVTHRNIVSDCSAFVKATENTVNPCPDDTLISFLPLAHMFERVVECVMLCHGAKIGFFQGDIRLLMDDLKVLQPTVFPVVPRLLNRMFDRIFGQANTTLKRWLLDFASKRKEAELRSGIIRNNSLWDRLIFHKVQSSLGGRVRLMVTGAAPVSATVLTFLRAALGCQFYEGYGQTECTAGCCLTMPGDWTAGHVGAPMPCNLIKLVDVEEMNYMAAEGEGEVCVKGPNVFQGYLKDPAKTAEALDKDGWLHTGDIGKWLPNGTLKIIDRKKHIFKLAQGEYIAPEKIENIYMRSEPVAQVFVHGESLQAFLIAIVVPDVETLCSWAQKRGFEGSFEELCRNKDVKKAILEDMVRLGKDSGLKPFEQVKGITLHPELFSIDNGLLTPTMKAKRPELRNYFRSQIDDLYSTIKV [ACSL1] | -0.213 | 51.6 | 52.1 | 0.0525 | -0.625 | -1.37
MSLRIDVDTNFPECVVDAGKVTLGTQQRQEMDPRLREKQNEIILRAVCALLNSGGGIIKAEIENKGYNYERHGVGLDVPPIFRSHLDKMQKENHFLIFVKSWNTEAGVPLATLCSNLYHRERTSTDVMDSQEALAFLKCRTQTPTNINVSNSLGPQAAQGSVQYEGNINVSAAALFDRKRLQYLEKLNLPESTHVEFVMFSTDVSHCVKDRLPKCVSAFANTEGGYVFFGVHDETCQVIGCEKEKIDLTSLRASIDGCIKKLPVHHFCTQRPEIKYVLNFLEVHDKGALRGYVCAIKVEKFCCAVFAKVPSSWQVKDNRVRQLPTREWTAWMMEADPDLSRCPEMVLQLSLSSATPRSKPVCIHKNSECLKEQQKRYFPVFSDRVVYTPESLYKELFSQHKGLRDLINTEMRPFSQGILIFSQSWAVDLGLQEKQGVICDALLISQNNTPILYTIFSKWDAGCKGYSMIVAYSLKQKLVNKGGYTGRLCITPLVCVLNSDRKAQSVYSSYLQIYPESYNFMTPQHMEALLQSLVIVLLGFKSFLSEELGSEVLNLLTNKQYELLSKNLRKTRELFVHGLPGSGKTILALRIMEKIRNVFHCEPANILYICENQPLKKLVSFSKKNICQPVTRKTFMKNNFEHIQHIIIDDAQNFRTEDGDWYGKAKFITQTARDGPGVLWIFLDYFQTYHLSCSGLPPPSDQYPREEINRVVRNAGPIANYLQQVMQEARQNPPPNLPPGSLVMLYEPKWAQGVPGNLEIIEDLNLEEILIYVANKCRFLLRNGYSPKDIAVLFTKASEVEKYKDRLLTAMRKRKLSQLHEESDLLLQIGDASDVLTDHIVLDSVCRFSGLERNIVFGINPGVAPPAGAYNLLLCLASRAKRHLYILKASV [SLFN5] | -0.0585 | 48.5 | 49.4 | -0.0689 | 1.54 | 2.13
MDARWWAVVVLAAFPSLGAGGETPEAPPESWTQLWFFRFVVNAAGYASFMVPGYLLVQYFRRKNYLETGRGLCFPLVKACVFGNEPKASDEVPLAPRTEAAETTPMWQALKLLFCATGLQVSYLTWGVLQERVMTRSYGATATSPGERFTDSQFLVLMNRVLALIVAGLSCVLCKQPRHGAPMYRYSFASLSNVLSSWCQYEALKFVSFPTQVLAKASKVIPVMLMGKLVSRRSYEHWEYLTATLISIGVSMFLLSSGPEPRSSPATTLSGLILLAGYIAFDSFTSNWQDALFAYKMSSVQMMFGVNFFSCLFTVGSLLEQGALLEGTRFMGRHSEFAAHALLLSICSACGQLFIFYTIGQFGAAVFTIIMTLRQAFAILLSCLLYGHTVTVVGGLGVAVVFAALLLRVYARGRLKQRGKKAVPVESPVQKV [SLC35B2] | -0.177 | 54.9 | 56.3 | 0.112 | -0.147 | 1.08
MAAATGDPGLSKLQFAPFSSALDVGFWHELTQKKLNEYRLDEAPKDIKGYYYNGDSAGLPARLTLEFSAFDMSAPTPARCCPAIGTLYNTNTLESFKTADKKLLLEQAANEIWESIKSGTALENPVLLNKFLLLTFADLKKYHFYYWFCYPALCLPESLPLIQGPVGLDQRFSLKQIEALECAYDNLCQTEGVTALPYFLIKYDENMVLVSLLKHYSDFFQGQRTKITIGVYDPCNLAQYPGWPLRNFLVLAAHRWSSSFQSVEVVCFRDRTMQGARDVAHSIIFEVKLPEMAFSPDCPKAVGWEKNQKGGMGPRMVNLSECMDPKRLAESSVDLNLKLMCWRLVPTLDLDKVVSVKCLLLGAGTLGCNVARTLMGWGVRHITFVDNAKISYSNPVRQPLYEFEDCLGGGKPKALAAADRLQKIFPGVNARGFNMSIPMPGHPVNFSSVTLEQARRDVEQLEQLIESHDVVFLLMDTRESRWLPAVIAASKRKLVINAALGFDTFVVMRHGLKKPKQQGAGDLCPNHPVASADLLGSSLFANIPGYKLGCYFCNDVVAPGDSTRDRTLDQQCTVSRPGLAVIAGALAVELMVSVLQHPEGGYAIASSSDDRMNEPPTSLGLVPHQIRGFLSRFDNVLPVSLAFDKCTACSSKVLDQYEREGFNFLAKVFNSSHSFLEDLTGLTLLHQETQAAEIWDMSDDETI [ATG7] | -0.0691 | 51.3 | 51.5 | -0.177 | -0.14 | 0.0236
MAANMYRVGDYVYFENSSSNPYLVRRIEELNKTANGNVEAKVVCLFRRRDISSSLNSLADSNAREFEEESKQPGVSEQQRHQLKHRELFLSRQFESLPATHIRGKCSVTLLNETDILSQYLEKEDCFFYSLVFDPVQKTLLADQGEIRVGCKYQAEIPDRLVEGESDNRNQQKMEMKVWDPDNPLTDRQIDQFLVVARAVGTFARALDCSSSIRQPSLHMSAAAASRDITLFHAMDTLQRNGYDLAKAMSTLVPQGGPVLCRDEMEEWSASEAMLFEEALEKYGKDFNDIRQDFLPWKSLASIVQFYYMWKTTDRYIQQKRLKAAEADSKLKQVYIPTYTKPNPNQIISVGSKPGMNGAGFQKGLTCESCHTTQSAQWYAWGPPNMQCRLCASCWIYWKKYGGLKTPTQLEGATRGTTEPHSRGHLSRPEAQSLSPYTTSANRAKLLAKNRQTFLLQTTKLTRLARRMCRDLLQPRRAARRPYAPINANAIKAECSIRLPKAAKTPLKIHPLVRLPLATIVKDLVAQAPLKPKTPRGTKTPINRNQLSQNRGLGGIMVKRAYETMAGAGVPFSANGRPLASGIRSSSQPAAKRQKLNPADAPNPVVFVATKDTRALRKALTHLEMRRAARRPNLPLKVKPTLIAVRPPVPLPAPSHPASTNEPIVLED [MTA2] | -0.00514 | 48.4 | 49.5 | -0.0629 | 0.686 | 5.69
MQAARMAASLGRQLLRLGGGSSRLTALLGQPRPGPARRPYAGGAAQLALDKSDSHPSDALTRKKPAKAESKSFAVGMFKGQLTTDQVFPYPSVLNEEQTQFLKELVEPVSRFFEEVNDPAKNDALEMVEETTWQGLKELGAFGLQVPSELGGVGLCNTQYARLVEIVGMHDLGVGITLGAHQSIGFKGILLFGTKAQKEKYLPKLASGETVAAFCLTEPSSGSDAASIRTSAVPSPCGKYYTLNGSKLWISNGGLADIFTVFAKTPVTDPATGAVKEKITAFVVERGFGGITHGPPEKKMGIKASNTAEVFFDGVRVPSENVLGEVGSGFKVAMHILNNGRFGMAAALAGTMRGIIAKAVDHATNRTQFGEKIHNFGLIQEKLARMVMLQYVTESMAYMVSANMDQGATDFQIEAAISKIFGSEAAWKVTDECIQIMGGMGFMKEPGVERVLRDLRIFRIFEGTNDILRLFVALQGCMDKGKELSGLGSALKNPFGNAGLLLGEAGKQLRRRAGLGSGLSLSGLVHPELSRSGELAVRALEQFATVVEAKLIKHKKGIVNEQFLLQRLADGAIDLYAMVVVLSRASRSLSEGHPTAQHEKMLCDTWCIEAAARIREGMAALQSDPWQQELYRNFKSISKALVERGGVVTSNPLGF [ACADVL] | -0.118 | 54.9 | 55 | 0.117 | 0.172 | -2.03
ITSN1 | -0.0764 | 49.5 | 50.2 | 0.0319 | -0.00548 | 0.39
MPKGGRKGGHKGRARQYTSPEEIDAQLQAEKQKAREEEEQKEGGDGAAGDPKKEKKSLDSDESEDEEDDYQQKRKGVEGLIDIENPNRVAQTTKKVTQLDLDGPKELSRREREEIEKQKAKERYMKMHLAGKTEQAKADLARLAIIRKQREEAARKKEEERKAKDDATLSGKRMQSLSLNK [PDAP1] | 0.473 | 57.9 | 54.2 | 0.734 | -6.85 | -6.55
MELTIFILRLAIYILTFPLYLLNFLGLWSWICKKWFPYFLVRFTVIYNEQMASKKRELFSNLQEFAGPSGKLSLLEVGCGTGANFKFYPPGCRVTCIDPNPNFEKFLIKSIAENRHLQFERFVVAAGENMHQVADGSVDVVVCTLVLCSVKNQERILREVCRVLRPGGAFYFMEHVAAECSTWNYFWQQVLDPAWHLLFDGCNLTRESWKALERASFSKLKLQHIQAPLSWELVRPHIYGYAVK [METTL7A] | -0.0939 | 57.6 | 56.8 | -0.294 | 0.77 | -0.471
MTO1 | -0.0427 | 50 | 50.4 | -0.108 | -0.222 | 1.63
